The results in this text go back to US20170313754A1 (PROTAGONIST THERAPEUTICS, published 2017).

Common to all, as to test: cell-based or functional assay
In assay [1] the target is T1, human ferroportin (SLC40A1) fused in frame with GFP, stably expressed on HEK293 cells (human, UniProt Q9NP59 1-571).
T1 sequence (looked up): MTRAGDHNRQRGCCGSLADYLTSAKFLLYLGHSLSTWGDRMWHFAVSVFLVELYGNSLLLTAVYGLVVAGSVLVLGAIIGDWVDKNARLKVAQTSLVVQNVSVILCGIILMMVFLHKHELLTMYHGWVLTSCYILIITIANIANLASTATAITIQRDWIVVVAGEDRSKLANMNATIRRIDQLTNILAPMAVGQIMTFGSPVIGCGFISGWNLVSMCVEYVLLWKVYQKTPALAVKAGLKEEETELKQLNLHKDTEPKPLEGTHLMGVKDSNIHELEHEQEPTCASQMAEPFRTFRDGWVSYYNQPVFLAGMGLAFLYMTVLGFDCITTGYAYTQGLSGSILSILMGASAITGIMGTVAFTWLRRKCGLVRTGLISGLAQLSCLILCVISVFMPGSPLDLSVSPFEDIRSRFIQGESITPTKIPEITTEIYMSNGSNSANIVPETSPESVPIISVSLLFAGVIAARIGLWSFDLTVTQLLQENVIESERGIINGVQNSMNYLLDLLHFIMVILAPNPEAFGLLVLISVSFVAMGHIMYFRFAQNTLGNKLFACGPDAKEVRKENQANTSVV

The target of assay [2] is T1, human ferroportin (SLC40A1) fused in …. This is another data set of the same source.
Assay [3] deals with T2, human ferroportin (SLC40A1) fused in frame with GFP, stably expressed in HEK293 cells (human, UniProt Q9NP59 1-571).
T2 sequence (looked up): T1 sequence (looked up)

Numbered stars: 1 amine (or outer) side, 2 acyl side, 3 side chain; on linkers, the order of the positions; unused ones are H or OH. Bridge positions count the residues as written; N and C are the ends. Square brackets hold non-standard residues; d marks the D form. Ends that are not written are not given here. * marks the point of attachment. IDA = iminodiacetic acid, O=C(CN(CC(=O)[*:3])[*:1])[*:2]; Palmitoyl = CCCCCCCCCCCCCCCC(=O)*; β3hF = N[C@H](CC(=O)O)Cc1ccccc1; β3hP = O=C(O)C[C@@H]1CCCN1; Isovaleryl = CC(C)CC(=O)*

Take H-DTHFPCIFGPRSKGWVC-NH2 (disulfide 6-17 (inferred)) [Hy-DTHFPCIFGPRSKGWVC-NH2]: the “EC50 (nM), ferroportin internalization/degradation assay” value in assay [1] is greater than 1000 nM. Regarding Isovaleryl-DTHFECIIFGPRSKGWVCK-NH2 (not fully specified (bridges); cysteine pairing not given here) [Isovaleric acid-DTHFECIIFGPRSKGWVCK-NH2], in assay [2], the “Ferroportin internalization assay EC50” value is greater than 1000 nM.

DTHFPCIKFKPRSKGWVCK (IVA (isovaleric acid) on the side chain of Lys 10; C-terminal amide) [Hy-DTHFPCIKF-K(IVA)-PRSKGWVCK-NH2]: the “Potency EC50” value in assay [3] was greater than 500 nM. As for Isovaleryl-DTHFPCRRFGPRSKGWVCK-NH2 (disulfide 6-18 (inferred)) [Isovaleric acid-DTHFPCRRFGPRSKGWVCK-NH2], the “EC50 (nM), ferroportin internalization/degradation assay” value in assay [1] was greater than 1000 nM. As to H-DTHKPCIIF-NH2 [Hy-DTHKPCIIF-NH2], in assay [2], the “percent at the stated concentration, ferroportin internalization assay” value (from here on “percent … ferroportin internalization assay”) stood at 45 % at 10 uM.

On to H-DTHFPCINFGPRSKGWVCK-NH2 (disulfide 6-18 (inferred)) [Hy-DTHFPCINFGPRSKGWVCK-NH2], for which the “Ferroportin internalization assay EC50” value in assay [2] was greater than 1000 nM. In the case of H-DTHFPCVIF-NH2 [Hy-DTHFPCVIF-NH2], the “percent at the stated concentration, ferroportin internalization/degradation assay” value in assay [1] came out at 81 % at 10 uM. Turning to H-DTHFPCAIF-NH2 [Hy-DTHFPCAIF-NH2], the “EC50 (nM), ferroportin internalization/degradation assay” value in assay [1] is greater than 1000 nM.

B1: Hy-DTHFPCIIFGPRSKGWNCK-NH2 (peptide)
peptide: H-DTHFPCIIFGPRSKGWNCK-NH2
modifications: not fully specified (bridges); printed as Hy-DTHFPCIIFGPRSKGWNCK-NH2; cysteine pairing not given here
With B1, the “Ferroportin internalization assay EC50” value in assay [2] was greater than 1000 nM.

Consider H-DTHFPCRF-NH2 [Hy-DTHFPCRF-NH2], for which the “percent at the stated concentration, ferroportin internalization/degradation assay” value in assay [1] stood at 31 % at 10 uM. In the case of H-DTHFPCRIFGPRSRGWVCK-NH2 (disulfide 6-18 (inferred)) [Hy-DTHFPCRIFGPRSRGWVCK-NH2], the “EC50 (nM), ferroportin internalization/degradation assay” value in assay [1] is greater than 1000 nM. H-DTHFPCIIT-NH2 [Hy-DTHFPCIIT-NH2]: the “percent … ferroportin internalization assay” value in assay [2] turned out to be 23 % at 1 uM. In the case of H-DTHFPCIIY-NH2 [Hy-DTHFPCIIY-NH2], the “percent … ferroportin internalization assay” value in assay [2] was found to be 75 % at 10 uM.

For H-DTHFVCIIF-NH2 [Hy-DTHFVCIIF-NH2], the “percent … ferroportin internalization assay” value in assay [2] was 50 % at 10 uM. For [IDA]THF[β3hP]CRR[β3hF]GPRSKGWVC-NH2 (disulfide 6-18 (inferred)) [[IDA]-THF-[bhPro]-CRR-[bhPhe]GPRSKGWVC-NH2], in assay [1], the “EC50 (nM), ferroportin internalization/degradation assay” value was greater than 1000 nM.

Consider H-DTHFPCIEY-NH2 [Hy-DTHFPCIEY-NH2], for which the “percent … ferroportin internalization assay” value in assay [2] amounted to 8 % at 1 uM. Consider H-DTHFPCRRF-NH2 [Hy-DTHFPCRRF-NH2], for which the “EC50 (nM), ferroportin internalization/degradation assay” value in assay [1] is greater than 10000 nM. On to H-DPHFPCIIF-NH2 [Hy-DPHFPCIIF-NH2], for which, in assay [2], the “percent … ferroportin internalization assay” value worked out at 64 % at 10 uM. With H-DTHFPCIDFGPRSKGWVCK-NH2 (disulfide 6-18 (inferred)) [Hy-DTHFPCIDFGPRSKGWVCK-NH2], the “Ferroportin internalization assay EC50” value in assay [2] was greater than 1000 nM.

B2: Hy-DTHFPCIIFGPRSRGHVCK-NH2 (peptide)
peptide: H-DTHFPCIIFGPRSRGHVCK-NH2
modifications: not fully specified (bridges); printed as Hy-DTHFPCIIFGPRSRGHVCK-NH2; cysteine pairing not given here
With B2, the “Ferroportin internalization assay EC50” value in assay [2] is greater than 1000 nM. With H-DTHFPCRIF-NH2 [Hy-DTHFPCRIF-NH2], the “percent at the stated concentration, ferroportin internalization/degradation assay” value in assay [1] is 31 % at 10 uM. With H-DTHFPCKIF-NH2 [Hy-DTHFPCKIF-NH2], in assay [1], the “percent at the stated concentration, ferroportin internalization/degradation assay” value came to 9 % at 10 uM.

Consider H-ADHFPCIIF-NH2 [Hy-ADHFPCIIF-NH2], for which, in assay [2], the “Ferroportin internalization assay EC50” value was greater than 1000 nM. Turning to H-DTHFPCIIFAA-NH2 [Hy-DTHFPCIIFAA-NH2], in assay [2], the “percent … ferroportin internalization assay” value was found to be 59 % at 1 uM. In the case of H-DTHFPCLF-NH2 [Hy-DTHFPCLF-NH2], the “percent at the stated concentration, ferroportin internalization/degradation assay” value in assay [1] turned out to be 39 % at 1 uM. As to H-DTHFPCIK(Isovaleryl)FGPRSKGWVCK-NH2 (disulfide 6-18 (inferred)) [Hy-DTHFPCI-K(IVA)-FGPRSKGWVCK-NH2], the “Potency EC50” value in assay [3] is greater than 500 nM. H-DTHFPCEIF-NH2 [Hy-DTHFPCEIF-NH2]: the “EC50 (nM), ferroportin internalization/degradation assay” value in assay [1] is greater than 1000 nM.

On to H-ATHFPCIIF-NH2 [Hy-ATHFPCIIF-NH2], for which the “Ferroportin internalization assay EC50” value in assay [2] was greater than 1000 nM. DTHFPCIIFXPHSKGWVC (N-terminal isovaleric acid; Sarc at 10; N-MeTrp at 16; C-terminal amide) [Isovaleric acid-DTHFPCIIF-[Sarc]-PHSKG[N-MeTrp]-VC-NH2]: the “Ferroportin internalization assay EC50” value in assay [2] is 9 nM. With Isovaleryl-DTHFPCIKFGPRSK(Palmitoyl)GWVCK-NH2 (disulfide 6-18 (inferred)) [Isovaleric acid-DTHFPCIKFGPRS-K(Palm)-GWVCK-NH2], the “Potency EC50” value in assay [3] was 1 nM. With DTHFPCIIFXPRSKGWVC (N-terminal isovaleric acid; Sarc at 10; N-MeTrp at 16; C-terminal amide) [Isovaleric acid-DTHFPCIIF-[Sarc]-PRSKG[N-MeTrp]-VC-NH2], the “Ferroportin internalization assay EC50” value in assay [2] came to 10 nM. For Isovaleryl-DTHFGCIKFEPRSKEWVCK-NH2 (not fully specified (bridges); cysteine pairing not given here) [Isovaleric acid-DTHFGCIKFEPRSKEWVCK-NH2], in assay [2], the “Ferroportin internalization assay EC50” value was greater than 1000 nM. On to H-DTHFPCILY-NH2 [Hy-DTHFPCILY-NH2], for which the “percent … ferroportin internalization assay” value in assay [2] came out at 85 % at 1 uM. With H-DTHFPRRFGPRSKGWVC-NH2 [Hy-DTHFPRRFGPRSKGWVC-NH2], the “EC50 (nM), ferroportin internalization/degradation assay” value in assay [1] was greater than 1000 nM.

H-DTHFPCIIFAC-NH2 (disulfide 6-11 (inferred)) [Hy-DTHFPCIIFAC-NH2]: the “Ferroportin internalization assay EC50” value in assay [2] was greater than 1000 nM. In the case of Isovaleryl-DTEFPCIKFEPRSKEWVCK-NH2 (disulfide 6-18 (inferred)) [Isovaleric acid-DTEFPCIKFEPRSKEWVCK-NH2], the “Ferroportin internalization assay EC50” value in assay [2] was greater than 1000 nM.
